Values of other authors in PMC5133818.

Biological target: cytochrome c (Homo sapiens) (UniProt P99999)
Test: SPR

Sequence of UniProt P99999 (P99999 2-105): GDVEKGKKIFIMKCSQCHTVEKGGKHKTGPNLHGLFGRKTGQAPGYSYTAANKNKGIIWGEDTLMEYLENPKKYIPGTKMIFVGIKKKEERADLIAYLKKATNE

## neuroglobin (from UniProt Q9NPG2)
  Kd: 200 µM
